Results published in patent US20240060059A1.
Where “and” joins values, the source holds several entries; their conditions need not be identical. Equal values may be shown once. Each block holds one substance with its values, some of them ahead of it.

Columns and labels:
Experiment in all cases: cell-based or functional assay
[1] = molecular target: spHT 180 C-terminal fragment fused to FRB or FKBP
[2] = molecular target: spHT 145 C-terminal fragment fused to FRB or FKBP
[3] = molecular target: spHT 80 C-terminal fragment fused to FRB or FKBP
[4] = molecular target: [196-297]-FRB (UniProt P42345)
Chain of UniProt P42345 (P42345 other isoform, or with tags, fused parts or gaps limits assumed): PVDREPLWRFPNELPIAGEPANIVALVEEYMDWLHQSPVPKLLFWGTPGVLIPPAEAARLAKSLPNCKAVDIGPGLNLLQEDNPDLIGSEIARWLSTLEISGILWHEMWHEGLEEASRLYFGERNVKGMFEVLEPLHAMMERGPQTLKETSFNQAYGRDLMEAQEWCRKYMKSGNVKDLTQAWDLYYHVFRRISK

[5] = molecular target: spHT 157 C-terminal fragment fused to FRB or FKBP
[6] = molecular target: spHT 133 C-terminal fragment fused to FRB or FKBP

Substance: spHT 180 N-terminal fragment fused to FRB or FKBP
- fold fluorescence signal increase (JF646 ligand) in the presence of 50 nM rapamycin, E. coli lysates [1]: > 2 fold

Substance: spHT 80 N-terminal fragment fused to FRB or FKBP
- fold fluorescence signal increase (JF646 ligand) in the presence of 50 nM rapamycin, E. coli lysates [3]: > 2 fold

Substance: spHT 157 N-terminal fragment fused to FRB or FKBP
- fold fluorescence signal increase (JF646 ligand) in the presence of 50 nM rapamycin, E. coli lysates [5]: > 2 fold

The next lines start with the values.

- fold fluorescence signal increase (JF646 ligand) in the presence of 50 nM rapamycin, E. coli lysates [2]: > 2 fold
Substance: spHT 145 N-terminal fragment fused to FRB or FKBP

- fold fluorescence signal increase (JF646 ligand) in the presence of 50 nM rapamycin, E. coli lysates [4]: 4.7 fold and > 2 fold
Substance: [1-195]-FKBP (from UniProt P62942 2-108)

- fold fluorescence signal increase (JF646 ligand) in the presence of 50 nM rapamycin, E. coli lysates [6]: > 2 fold
Substance: spHT 133 N-terminal fragment fused to FRB or FKBP
